For two substances, Kd results are on record in publication PMC7884259.

In the experiment the target is ATAD2B bromodomain (residues 953–1085) (human) (UniProt Q9ULI0). In words: ITC.
Sequence of ATAD2B bromodomain (residues 953–1085) (human) (Q9ULI0 953-1085): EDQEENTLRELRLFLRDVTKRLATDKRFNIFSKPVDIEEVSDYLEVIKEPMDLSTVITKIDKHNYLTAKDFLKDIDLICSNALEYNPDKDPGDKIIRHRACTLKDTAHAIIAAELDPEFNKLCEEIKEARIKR

In turn, H4K12ac (res 4–17) (peptide) had a Kd of 50.5 µM.

Consider H4K12acK16ac (res 10–20) (peptide), for which the equilibrium dissociation constant (Kd) turned out to be 214 µM.
